{"source": "a protein production outcome set (Wang et al. 2014)", "assay": "label from the status in PepcDB records"}
{"sequence": "MKIAIVRLSALGDIIVSAVFLAVIKECLPNAQIEWFVDERFSAILEHSPYIDKLHPIALKSALKTLNPLKIFKLFKSLRAYEYDIIIDMQGLVKSALITQMLKAPKKVGFDYASAREGLSMFFYSQKVSIAYDEPVLKRNFTLLSHALNLPQKEISKEISESLSSRAKAFSYQPSPKIDALNLNKNKPKILFILETSKINKTYPIERFKELALILENFQICLLWHADEYKATTLYHALKHQRDVLLLPKLTLNEVKALLFKMDLIIGGDTGITHLAWALQKPSITLYGNTPMERFKLESPINVSLTGNSNANYHKKDFSIQNIEPKKIKECVLNILKEKE", "values": [{"measurement": "protein production", "value": "failed"}]}
{"sequence": "MTDVFKDMAFQLKTERLDLNMWEESDAVWLRKLIGERGVEMPTIESVRSSLIEMRKKAIENGISLLTIRRRDEGDFIGYCGLIIGRATLEEPEIAYELFKSAHRKGYATEAASAVLEAAIATGRHRLWSTVGAWNTASFRVLEKLGFHRHHSTYGERGEIVWNVRDL", "values": [{"measurement": "protein production", "value": "failed"}]}
{"sequence": "MDYVVSYLSIEFGLCFILFFVLYWGLGFSLRLQNVLLLVASYAILASFSLNFLYILLGYTALVYLLGLLSQRYPGRGWVNGLMLLLVLGAFYLFKYQDFFTSTVQNAFAQFGVEVSLPLLEVLLPVGLSFYAFHSVSYLVSINRRELTPGSPFDLALYLAFFPSLIAGPVNRAIPMLAQINPPQLRQVLEPQRALGLIAVAVVKLFFLSSWLANEWVDPVFDSPVAYSAEQILRAVYGYSFLIYFNFSGYTDLVTGIALLLGFRLPQNFNYPYAARNLKEFWGRWHISLSTFIRDYVYIPLGGNRGPVWRGNLNMLLAMLISGLWHGASANFIIWGALHGIGLALYKLCSPLLARGPSWIGADLMARLLTFHYVAFAWIFFRCATLSDAMDMLKGLGELSLGGLLGGGASLLGCLLFVAFYPRIVALLRRLFDAATGLPWLFYPVPLGLFICVVIFASPSGVPGFIYASF", "values": [{"measurement": "protein production", "value": "failed"}]}
{"sequence": "MIFNSARLKDMDIQYQILRQIEKYQTIIIHRHQRPDPDAVGSQLGLKNGLQAAFPEKNIYAVGKEITGLAWVGSMDIIPDSTYENALVIVIDTANVARIDDDRFKNGDKLIKIDHHPNDEPYGDLMWVEPGRSSCSEMVTFFLDDNIPLLLTDEAARNLYIGIVGDTGRFMYASTPETFIAVSKLYHFSIDYERVNREMSSISLVQARFSGKVYDEMKVEDHVGWITLTKAEIEAGHLGNEGTNFVVGMFGSIKEVLVWANFIENDDGSYRVRLRSKGPNVNEIAKLHNGGGHDMASGAKAKDQTEIDQIIKELKESANIFSTSLEKTAK", "values": [{"measurement": "protein production", "value": "failed"}]}
{"sequence": "MDNRNIDPYFNPEQFLETQKYKGTVTALIFLLLFFIFLMVAFKKAFFAQANMPNLVMSKQDTAARGTIYSQDNYSLATSQTLFKLGFDTRFLNPDKEDFFIDFLSIYSNIPKKSLKDAINTKGYIILAYDLTPNMAANIRDLNKKFLAFGVFQNFKDAHDKVWQKQGLNIEVSGVSRHYPYQNSLEPIIGYVQKQEEDKLTLTTGKKGVEKSQDHLLKAQQNGIRTGKRDVSFNFIQNHSYTEVERLDGYEVYLSVPLKLQREIETLLDKTKDKLKAKEILVGIINPKSGEILSLASSKRFNPNAIKTSDYESLNLSVAEKVFEPGSTIKPIVYSLLLDKNLINPKERIDLNHGYYQLGKYTIKDDFIPSKKAVVEDILIQSSNVGMIKISKNLNPKDFYNGLLGYGFSQKTGIDLSLEATGKIPPLSAFKREVLKGSVSYGYGLNATFLQLLRAYAVFSNEGKLTTPYLVQRETAPNGDIYIPSPKPTFQVISPKSARKMKETLIKVVRYGTGKNAQFEGLYIGGKTGTARVAKNGSYSAQSYNSSFFGFAEDERQVFTIGVVILGSHGKEEYYASKIAAPIFKEITEILVRYNYLSPSIAIQNALEKNRFKIK", "values": [{"measurement": "protein production", "value": "failed"}]}
{"sequence": "MGRDYQSEALAEQHLREAHLLAPDHAAVLIGLYRFYFYKGRLGEALEVAQACLCKAARDNGLASDWRKVRRGDAEFSSYSAVLPRFYLFALKAYAYLQMRLGQLDEGHAAVEKLLELDPTDKVGAAVLLDVWRRIGLEHHHHHH", "values": [{"measurement": "protein production", "value": "failed"}]}
{"sequence": "MLVDSQYKECVKEIINWGLFLYSEESRRNLIHDSLVELRCHFTWELVIKDNYMPDLEAKILETEFLDTNYNMGMHNLMAYVRHLKGEQEEALQSLKEAEALIEGEQLGKRSLVTWGNCAWVHYHRGSLAEAQIYLDKVENVCREFASPFRYRMECAEIDCEEGWALLKCGGSNCTRAMACFAKALQEEPENPEYNAGYAITAFRMDFSNEISLEPLRKAVRLNPEDPHLKVLLALKLQDLGKQDEAEKHIEEALPKIPSRNNIFGYVAKFYRRKGCVEEALEFLERALKTKPSSVYLHFQIGLCHKSRVFQIKEATNMHPKGKDRERADQSIRSAIYYFEKTLDLKPTYERAYIDLAEMYAESKQFEEAEEAFQKVLSMLSNLEVHMQQEIHFRYGKFQQFHMKSENIAITHYLKGLKIEVTSIFRDKLLKALQKLAERRMQQNVHVLESLSLLGFVYRLKGDTRKAMSCYEKALRLTEELNPEF", "values": [{"measurement": "protein production", "value": "failed"}]}
{"sequence": "MRQHWRMRHLALACFLLAPGAALASDCPTAPDHSERIAHLIEDIRAAPNEMQARTISNRMWEIWADAPDEAAQAILDNGMSRRRAWDLLGALSEFDRLVAYCPDYAEGYNQRAFANFLRQDFAAALIDLDRALALSPNHVAAMSGRALTLMGLGRIDEARSVLNQALELNPWLPERGLVAPGGPLEPKGKDI", "values": [{"measurement": "protein production", "value": "failed"}]}
{"sequence": "MLPLTLIAILSLGIVEGLDPYKGLLFSYYFYSFRKVKESYVVPIVSTITYYIVGILIVEWLNISDNILTRGIMFSLLLVHVLIKLVIGKVLHYPSNMRPKILNVIQWSAINSIIQMNFIILLTLSILSKPSLILLPITVIIVRETTYCLSVKNNKILLKLTEYNFDYFYLITVLLLGIVIILPLL", "values": [{"measurement": "protein production", "value": "failed"}]}
{"sequence": "MTDKRGNNGKTGLLFPAIFTIFVSIYAAGNYYVGLRFFQSIQSLIEPYSLFYWSGYAFLVISLFAGRLGKRFYPGYVNDLFAVTGNYWVGAVYYSLLIWAGIDVLHFLTSLIFPATRIIKYPSFYFGLAVLLLVFLLLLYGTWNARHPRIVHYDITIKKSVPDLPELHAVMVSDIHLGLVVDKDRLKEMVNRINELDPDVVFLAGDTIDEDVRLFASNKMPEILKKLKSRYGVYAVLGNHEYIGGNNELAVEYLQQAGIHVLVDKCIKVNNHFYVAGRDDRVAGRMNGKKRLELSRLVDGIDHTLPIILLDHQPINLKEGQLNGIDLQLSGHTHAGQFFPNTLISKRVFENSWGYLKKGECQIIVSAGFGTWGPPIRIGSNSEITDIKISFV", "values": [{"measurement": "protein production", "value": "failed"}]}
{"sequence": "MTKSKIIEIGPLVPAFEEEKIVILFGPTATNELREISVIHEFEAAPQSALSKGNTLQIGDQVYIIEEVGTEANKNLEELGHISIYFRSGQNEVLPGAIVVSPEVFPTLAIGDTIQF", "values": [{"measurement": "protein production", "value": "failed"}]}
{"sequence": "MISLQFFITAFVVVLAPGTGVIYTLAIGLGRGRSAAAWAALGCTLGILPHLAAAILGLAAILHSSALLFQLVKAAGVAYLLYLAWQALRSDGALAIRSEHSHQPGWRIAWRGALINILNPKLSVFFLALLPPFLSGNPASATAEMSLLGLVFMAMTFAVFLLYGAFASAARTYLMQSERALRWMGRGFALVFAGLAARLAMERA", "values": [{"measurement": "protein production", "value": "failed"}]}
{"sequence": "MTRRALFGPKVAPLIQAASLTLALLLFLAACGPKGSYENVGPEELYEALAAGALVVDVRTPGEFAQGHVPGAINLPVEEVARWADRIPKDRPVYLYCRSGNRSRKAAEYLARKGYTNLYNVEGGVLAIARAGYPLVR", "values": [{"measurement": "protein production", "value": "failed"}]}
{"sequence": "MIKKNNLILIKLKNSMKKMIKIAFVAAFVAIAGYGVYTNQKSETLSDLTLANVEALAGGESGGYYCCSPYSYECYRIVGGGIVHGLRLPLPC", "values": [{"measurement": "protein production", "value": "failed"}]}
{"sequence": "MKMTAKMRREFPTAFLLLFLVPVMIPVGEAVWLDVPPTGTKCVSEEIQSNVVVLADYLIISEDHEVMPTISVKVTSPYGNNLHNMENVTHGQFAFTTQESGNYLACFWADEKSHGNKNVSINIDWRTGIAAKDWASIAKKEKIEGVELEIRKLEGAVEAIHENILYLRNREADMRTMSEKTNSRVAWYSIMSLGVCIAVSGFQVLYLKQYFEKKKLI", "values": [{"measurement": "protein production", "value": "failed"}]}
{"sequence": "MNYFPDEVIEHVFDFVASHKDRNSISLVCKSWHKIERFSRKEVFIGNCYAINPERLIRRFPCLKSLTLKGKPHFADFNLVPHEWGGFVHPWIEALARSRVGLEELRLKRMVVTDESLDLLSRSFANFKSLVLVSCEGFTTDGLASIAANCRHLRELDLQENEIDDHRGQWLNCFPDSCTTLMSLNFACLKGETNVAALERLVARSPNLKSLKLNRAVPLDALARLMSCAPQLVDLGVGSYENEPDPESFAKLMTAIKKYTSLRSLSGFLEVAPLCLPAFYPICQNLISLNLSYAAEIQGNHLIKLIQLCKRLQRLWILDSIGDKGLAVVAATCKELQELRVFPSDVHGEEDNNASVTEVGLVAISAGCPKLHSILYFCKQMTNAALIAVAKNCPNFIRFRLCILEPHKPDHITFQSLDEGFGAIVQACKGLRRLSVSGLLTDQVFLYIGMYAEQLEMLSIAFAGDTDKGMLYVLNGCKKMRKLEIRDSPFGNAALLADVGRYETMRSLWMSSCEVTLGGCKRLAQNSPRLNVEIINENENNGMEQNEEDEREKVDKLYLYRTVVGTRKDAPPYVRIL", "values": [{"measurement": "protein production", "value": "failed"}]}
{"sequence": "MTILVEHFVPDSRVDEKKVIEERDNELVLDGGFVVPKSKETDAFDAPDMNFLGHSFRDYENGESERQQGVEEFYRMQHIHQTYDFVKKMRKEYGKLNKMEMSIWECCELLNNVVDESDPDLDEPQIQHLLQTAEAIRRDYPDEDWLHLTALIHDLGKVLLLPEFGGLPQWAVVGDTFPVGCTFDSANIHHKYFKGNHDINNPKYNTKNGVYTEGCGLDNVLMSWGHDDYMYLVAKKNGTTLPHAGLFIIRYHSFYPLHKAGAYTHLMNDEDRDDLKWLHVFNKYDLYSKSKVLVDVEQVKPYYISLINKYFPAKLKW", "values": [{"measurement": "protein production", "value": "failed"}]}
{"sequence": "MPKVEIAPSEIKIPDNVLKAKLGFGGAEEIPEEFRKTVNRAYEELLDAAKPVVLWRDFEVDGSLSFDDMRLTGELATKHLSGSKIITVFLATLGKKVDEKIEEYFRKGEDLLAFFIDGIASEMVEYALRKVDAELRMKRSNLEGSFRISPGYGDLPLSLNKKIAEIFKEEVDVNVIEDSYVLVPRKTITAFVGWREKNEKQT", "values": [{"measurement": "protein production", "value": "not failed"}]}
{"sequence": "MVRVRFAPSPTGFLHVGGARTALFNFLFARKEKGKFILRIEDTDLERSEREYEEKLMESLRWLGLLWDEGPDVGGDHGPYRQSERVEIYREHAERLVKEGKAYYVYAYPEEIEEMREKLLSEGKAPHYSQEMFEKFDTPERRREYEEKGLRPAVFFKMPRKDYVLNDVVKGEVVFKTGAIGDFVIMRSNGLPTYNFACVVDDMLMEITHVIRGDDHLSNTLRQLALYEAFEKAPPVFAHVSTILGPDGKKLSKRHGATSVEAFRDMGYLPEALVNYLALLGWSHPEGKELLTLEELISSFSLDRLSPNPAIFDPQKLKWMNGYYLRNMPIEKLAELAKPFFEKAGIKIIDEEYFKKVLEITKERVEVLSEFPEESRFFFEDPAPVEIPEEMKEVFSQLKEELQNVRWTMEEITPVFKKVLKQHGVKPKEFYMTLRRVLTGREEGPELVNIIPLLGKEIFLRRIERSLGG", "values": [{"measurement": "protein production", "value": "not failed"}]}
{"sequence": "MDLDNLFKTTSSSKDKKNNTIDLVVSDDMAFLQAIDELYAIEGFASPLKVDDIDDESWHKTSAEIKHVVLDLRDCGELVSEVAEISSRLDVSISLIVLSNTDSILMRDKVLSLGANYILWDPELDGLLGALKESGKDTFSPTVKKKSRIAKRVLMLGSKGGVGVSTISAFLSHSLSQQASLKTLLVEHDTLALNSDIFLGLKGLKAQQNSIDLNQSELDAAIAGSYVHPIKDKLDFLALEKNIACISDHADSLFRISNELVDQYNFIIDSLPLNAINELTSEDINERYNRIFVVCEPSVASLRAYHSIKKKLGKAEHRIIFSMTRSQKDYMMPLQGAKEKIKAKDTIDFVYEANLEKLIIQQGIHNTAKIKFTPAIANMVNSLTGKKVKVQKKFAWFKK", "values": [{"measurement": "protein production", "value": "failed"}]}
{"sequence": "MIMMENDRISDFFIVAFIFSWVLWIPVAMVSAGFSFPQPLQAFLESPYNPAAFGPTLAAVLLSYRYGGRDELLALLRKGVNYDFHRIWWPVILLFFPVLTAVALYLGVLWGDPQPYLYWTSQPLMVIMVFIYIFFLGGPLQEEFGWRGYALPRLQRRYSPIYAALIIGFIWGLWHIPLFFIGGSIQSQVPFWSFMILIISASVIYTWVYNSTGSILATMIIHTTGNLSYFLFPVQGTLAGGIFLMILNVAAALAVMLFAGSELKTDFGGQGH", "values": [{"measurement": "protein production", "value": "failed"}]}
